# Columns and labels:
# [1] = molecular target: bacteriophage P22 coat protein (CP), assembled as P22 virus-like particle capsid (bacteriophage P22) (UniProt P26747); test: SEC-MALS; expanded (EX) VLPs made from PC by 3.5 mM SDS for 5 min at room temperature, then ultracentrifuged twice; also SDS-PAGE and TEM
# [2] = molecular target: bacteriophage P22 coat protein (CP), assembled as P22 virus-like particle capsid (bacteriophage P22) (UniProt P26747); test: SEC-MALS; procapsid (PC) VLPs from co-expression of CP and AdhD-SP in E. coli, purified; also SDS-PAGE and TEM; cargo number calculated from the molar mass of the particles; 50 mM sodium phosphate, 100 mM sodium chloride, pH 7.0
# Chain of UniProt P26747 (P26747 whole entry): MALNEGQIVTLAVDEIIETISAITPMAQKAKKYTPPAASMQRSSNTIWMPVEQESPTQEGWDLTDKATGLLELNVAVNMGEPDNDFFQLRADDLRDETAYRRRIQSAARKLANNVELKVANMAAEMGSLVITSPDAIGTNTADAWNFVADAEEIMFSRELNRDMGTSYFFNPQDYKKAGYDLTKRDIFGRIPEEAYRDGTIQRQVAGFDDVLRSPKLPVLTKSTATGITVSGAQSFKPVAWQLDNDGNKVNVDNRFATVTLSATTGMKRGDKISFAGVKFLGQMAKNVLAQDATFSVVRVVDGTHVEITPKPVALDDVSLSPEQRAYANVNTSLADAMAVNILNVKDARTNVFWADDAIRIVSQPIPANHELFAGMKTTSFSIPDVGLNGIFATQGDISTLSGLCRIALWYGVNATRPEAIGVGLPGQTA
substance,measurement,setting,value
alcohol dehydrogenase-D (AdhD) fused to P22 scaffolding protein (AdhD-SP) (enzyme),stoichiometry N (AdhD-SP per VLP),[1],174
same,stoichiometry N (AdhD per capsid),[2],204

# — PMC8131759
